Measured values taken from IntAct's records for PubMed 19013460.

B1: Thiamine metabolism regulatory protein THI3 (Saccharomyces cerevisiae), Q07471 (parent)
chain: MNSSYTQRYALPKCIAISDYLFHRLNQLNIHTIFGLSGEFSMPLLDKLYNIPNLRWAGNSNELNAAYAADGYSRLKGLGCLITTFGVGELSAINGVAGSYAEHVGILHIVGMPPTSAQTKQLLLHHTLGNGDFTVFHRIASDVACYTTLIIDSELCADEVDKCIKKAWIEQRPVYMGMPVNQVNLPIESARLNTPLDLQLHKNDPDVEKEVISRILSFIYKSQNPAIIVDACTSRQNLIEETKELCNRLKFPVFVTPMGKGTVNETDPQFGGVFTGSISAPEVREVVDFADFIIVIGCMLSEFSTSTFHFQYKTKNCALLYSTSVKLKNATYPDLSIKLLLQKILANLDESKLSYQPSEQPSMMVPRPYPAGNVLLRQEWVWNEISHWFQPGDIIITETGASAFGVNQTRFPVNTLGISQALWGSVGYTMGACLGAEFAVQEINKDKFPATKHRVILFMGDGAFQLTVQELSTIVKWGLTPYIFVMNNQGYSVDRFLHHRSDASYYDIQPWNYLGLLRVFGCTNYETKKIITVGEFRSMISDPNFATNDKIRMIEIMLPPRDVPQALLDRWVVEKEQSKQVQEENENSSAVNTPTPEFQPLLKKNQVGY
partner: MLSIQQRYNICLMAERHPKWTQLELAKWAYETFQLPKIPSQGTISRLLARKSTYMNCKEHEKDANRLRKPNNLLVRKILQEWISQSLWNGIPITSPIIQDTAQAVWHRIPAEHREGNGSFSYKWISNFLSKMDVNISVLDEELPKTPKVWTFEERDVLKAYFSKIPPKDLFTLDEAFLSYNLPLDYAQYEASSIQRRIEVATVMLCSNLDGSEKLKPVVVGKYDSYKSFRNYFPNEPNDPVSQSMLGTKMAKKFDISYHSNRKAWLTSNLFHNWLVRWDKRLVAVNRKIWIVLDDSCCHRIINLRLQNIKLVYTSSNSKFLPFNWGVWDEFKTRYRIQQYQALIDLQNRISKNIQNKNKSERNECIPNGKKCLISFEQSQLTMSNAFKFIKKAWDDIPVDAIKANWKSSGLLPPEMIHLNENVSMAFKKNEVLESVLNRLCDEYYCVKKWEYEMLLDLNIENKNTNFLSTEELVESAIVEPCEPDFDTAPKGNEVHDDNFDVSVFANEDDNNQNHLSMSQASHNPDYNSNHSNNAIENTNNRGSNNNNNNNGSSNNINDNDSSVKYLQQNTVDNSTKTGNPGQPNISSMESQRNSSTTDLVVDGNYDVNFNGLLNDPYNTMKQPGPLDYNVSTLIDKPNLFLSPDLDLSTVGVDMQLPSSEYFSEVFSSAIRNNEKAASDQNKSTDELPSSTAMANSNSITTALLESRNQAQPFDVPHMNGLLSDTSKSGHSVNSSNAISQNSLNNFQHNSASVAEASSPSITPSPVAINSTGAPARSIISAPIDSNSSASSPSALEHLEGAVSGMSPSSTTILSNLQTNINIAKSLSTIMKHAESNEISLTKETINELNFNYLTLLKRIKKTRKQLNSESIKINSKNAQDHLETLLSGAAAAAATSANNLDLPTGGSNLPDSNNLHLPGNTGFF

Variants of: B1
Conditions: with pdc2_yeast PDC2, P32896

Row | Variant | effect of a mutation on the interaction
1 | N488D | increasing interaction
